According to PMC2817712:
Substitutions are numbered along the chain they refer to. Numbers in names are those of the source. Blank lines part the entries; values can stand above or below the binder they belong to.

Molecular target: T1, CheA3P1, the isolated P1 (Hpt, histidine-containing phosphotransfer) domain of CheA3 (residues 1-135), unphosphorylated
T1 chain: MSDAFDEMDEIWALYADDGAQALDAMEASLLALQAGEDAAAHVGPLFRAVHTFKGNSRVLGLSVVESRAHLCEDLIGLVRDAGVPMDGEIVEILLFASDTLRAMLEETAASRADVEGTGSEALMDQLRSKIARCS
Experiment: SPR
Details: chain shown with the change; CheA3P1 injected over surfaces coupled with the respective RR; CheA3P1 concentration ranging from 120 nM to 2 mM; parent: ND

Kd: 365 µM
B1: CheY4 (wild type) with an engineered C-terminal biotinylation tag, for SPR surfaces P12A; S13M; C16L; M17Y (protein)
chain: MTKTVLAVDDSAMIRLYVALTLREAGYEVIEASDGQEALDLALSRPVDAILTDQNMPRLDGLGFIRAFRSRPEGKGTPIVFLSTESADTLKAEARAAGALGWMVKPFTQAQLLAVMKKLLG

Kd: 678 µM
B2: CheY4 (wild type) with an engineered C-terminal biotinylation tag, for SPR surfaces P12A; S13M (protein)
chain: B1 chain with L16C, Y17M
